Measurements as given in patent US20200181261A1 (Bayer, published 2020).

T1: Human CEACAM6-Domain 1-His (expressed in E. coli), wild-type (human)
T1 construct: entry includes the His tag; also called hDOM1
T1 chain: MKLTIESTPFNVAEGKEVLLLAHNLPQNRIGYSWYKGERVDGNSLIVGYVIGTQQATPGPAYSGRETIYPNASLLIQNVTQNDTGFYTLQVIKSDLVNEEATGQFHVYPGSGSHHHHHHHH

T2: Macaca fascicularis CEACAM6-Domain 1-His (expressed in E. coli) (Macaca fascicularis)
T2 construct: entry includes the His tag; also called TPP-2453; Recombinant single domain 1 of Macaca fascicularis CEACAM6
T2 chain: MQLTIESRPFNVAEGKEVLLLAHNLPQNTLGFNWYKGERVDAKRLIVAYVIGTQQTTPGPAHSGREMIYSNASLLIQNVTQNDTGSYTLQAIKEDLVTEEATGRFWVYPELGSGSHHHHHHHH

T3: human CEACAM19, full-length, on transfected HeLa cells (human, UniProt Q7Z692 33-300)
T3 construct: also called TPP-4186; HeLa human CEACAM19
T3 sequence: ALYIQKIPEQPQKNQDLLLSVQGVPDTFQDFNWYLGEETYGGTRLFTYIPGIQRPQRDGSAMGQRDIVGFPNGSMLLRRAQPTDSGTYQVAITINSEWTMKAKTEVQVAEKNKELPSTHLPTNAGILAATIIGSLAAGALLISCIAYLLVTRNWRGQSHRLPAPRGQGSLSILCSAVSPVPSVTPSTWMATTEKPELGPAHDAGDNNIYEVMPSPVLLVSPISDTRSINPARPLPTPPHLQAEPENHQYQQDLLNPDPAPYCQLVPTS

T4: human CEACAM6, full-length, on cells (human, UniProt P40199 35-320)
T4 construct: used both for transfected HeLa cells and for tumor cell lines that express CEACAM6 endogenously; also called TPP-4639; HeLa human CEACAM6
T4 sequence: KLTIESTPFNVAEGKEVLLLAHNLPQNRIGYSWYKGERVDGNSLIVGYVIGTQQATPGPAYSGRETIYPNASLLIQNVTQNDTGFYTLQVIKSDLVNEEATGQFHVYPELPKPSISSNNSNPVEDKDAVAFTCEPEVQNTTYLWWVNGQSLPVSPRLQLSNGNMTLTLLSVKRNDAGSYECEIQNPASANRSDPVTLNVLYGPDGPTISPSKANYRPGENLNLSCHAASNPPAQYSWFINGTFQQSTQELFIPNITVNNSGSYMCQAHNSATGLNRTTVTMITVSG

T5: human CEACAM1, extracellular (mature form), R&D Systems 2244-CM (human, UniProt P13688 35-428)
T5 construct: used biotinylated in some assays; also called TPP-1437; hC1
T5 sequence: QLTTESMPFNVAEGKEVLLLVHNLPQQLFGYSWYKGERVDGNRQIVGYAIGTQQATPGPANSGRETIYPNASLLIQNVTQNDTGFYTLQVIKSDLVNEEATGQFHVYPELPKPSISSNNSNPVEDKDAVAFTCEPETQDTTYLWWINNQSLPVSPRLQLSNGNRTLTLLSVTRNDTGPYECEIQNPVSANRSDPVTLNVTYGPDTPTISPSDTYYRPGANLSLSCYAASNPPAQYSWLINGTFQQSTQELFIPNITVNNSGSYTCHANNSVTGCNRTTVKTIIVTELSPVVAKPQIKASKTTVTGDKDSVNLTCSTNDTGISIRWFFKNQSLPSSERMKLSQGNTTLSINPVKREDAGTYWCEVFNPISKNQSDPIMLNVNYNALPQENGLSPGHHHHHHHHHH


Key:
[1] = target: T1, Human CEACAM6-Domain 1-His (expressed …); test: SPR, antibody captured, antigen as analyte
Description: (§1) Surface plasmon resonance (SPR) experiments for quantitative binding analyses were performed either using a Biacore T100, Biacore T200 or a Biacore 4000 instrument (GE Healthcare Biacore, Inc.) equipped with Series S Sensor Chips CM5 (GE Healthcare Biacore, Inc.). Binding assays were carried out at 25° C. with assay buffer HBS-EP+(10 mM HEPES pH 7.4, 150 mM NaCl, 3 mM EDTA, 0.05% Surfactant P20). Antibodies were captured with an anti-hIgG capture antibody covalently immobilized to the chip surface via amine coupling chemistry. Reagents for amine coupling (1-ethyl-3-(3-dimethylaminopropyl) carbodiimide hydrochloride (EDC), N-hydroxysuccinimide (NHS), ethanolamine-HCl pH 8.5) were used from the Amine Coupling Kit (GE Healthcare, product code BR-1000-50). Anti-hIgG, anti-mIgG capture antibodies and immobilization buffer (10 mM sodium acetate pH 5.0) were used from the Human Antibody Capture Kit (GE Healthcare, BR-1008-39) and the Mouse Antibody Capture Kit (GE Healthcare, BR-1008-38), respectively. The sensor chip surface was activated with a freshly prepared solution of 0.2 M EDC and 0.05 M NHS passed over the chip surface for 420 s at a flow rate of 10 μl/min, followed by an injection of anti-hIgG or anti-mIgG capture antibody (dissolved to 25 μg/ml in immobilization buffer) for 180 s at a flow rate of […]. Excess of activated groups were blocked with a 1 molar solution of ethanolamine injected at a flow rate of 10 μl/min for 420 s.
(§2) CEACAM antigens were used as analyte to determine KD values. Antibodies were captured for 20 s at a flow rate of 10 μl/min prior to each analyte injection.

[2] = target: T2, Macaca fascicularis CEACAM6-Domain …; test: SPR, antibody captured, antigen as analyte
Description: as §1, §2

[3] = target: T3, human CEACAM19, full-length, on …; test: FACS, transfected HeLa cells
Description: (§3) For FACS experiments HeLa wild type cells were cultured in RPMI-1640, 10% FCS, while CEACAM-receptor transfected HeLa cells received in addition 0.5% Gentamycin (stock 10 mg/ml, Fa. PAA) and 200 μg/ml Hygromycin B (stock 50 mg/ml, Invitrogen). Cells were washed 3 times with PBS w/o Ca²⁺/Mg²⁺ and were detached from the culture plate non-enzymatically with EDTA dissociation buffer (Gibco). Cells were washed in cold FACS buffer (PBS w/o Ca²⁺/Mg²⁺ and heat-inactivated 3% FCS) and were counted using a countess machine (Invitrogen). 10⁵ cells per well were plated and incubated with the respective primary antibody (5 μg/ml) for 1 h at 4° C. on a plate shaker. […] After 2 times washing the cells were resuspended in 100 μl FACS buffer and were analysed on a FACS Canto II machine (Beckton Dickinson) or a FACS Array (Beckton Dickinson).
(§4) For EC₅₀ analysis, the primary antibodies were used at increasing concentrations in a range from 0.1 nM to 100 nM. Half maximal binding values (EC₅₀) were determined by plotting the median fluorescence intensity signal against the concentration (logarithmic scale). Curve fitting of data was performed using the Graph Pad prism analysis software.

[4] = target: T4, human CEACAM6, full-length, on cells; test: FACS, transfected HeLa cells
Description: as §3, §4

[5] = target: T5, human CEACAM1, extracellular (mature …); test: SPR, antibody captured, antigen as analyte
Description: as §1, §2
Obtained sensorgrams were double-referenced, i.e. in-line reference cell correction followed by buffer sample subtraction.

Binder | Kd [1] [nM] | Kd [2] [nM] | binding result [3] | EC50 [4] [nM] | FACS median fluorescence [4] [medianfluorescence] | binding result [5]
TPP-3705 (antibody, human IgG2, kappa, V domains shown, also called 090E-M007-A09-Mat1-hIgG2-hIgG2Kappa) VH: EVQLVESGGGLVQPGGSLRLSCAASGFTFSLYQMHWVRQAPGKGLEWVSWISFSGGNTGYADSVKGRFTISRDNSKNTLYLQMNSLRAEDTAVYYCARATGYSSPWYLDPWGQGTLVTVSS VL: DIQMTQSPSSLSASVGDRVTITCQASHEIDNYLNWYQQKPGKAPKLLIYDAYWLKTGVPSRFSGSGSGTDFTLTISSLQPEDIATYYCQGYDDLSVTFGGGTKVDIKR | 6.7 | 2.7 |  |  |  | 
TPP-3707 (antibody, human IgG2, kappa, V domains shown, also called 090E-M007-A09-Mat2-hIgG2-hIgG2Kappa) VH: EVQLVESGGGLVQPGGSLRLSCAASGFTFSLYQMHWVRQAPGKGLEWVSWISFSGGNTGYADSVKGRFTISRDNSKNTLYLQMNSLRAEDTAVYYCARATGYSSPWYLDPWGQGTLVTVSS VL: DIQMTQSPSSLSASVGDRVTITCQASHEIDNYLNWYQQKPGKAPKLLIYDAYWSKTGVPSRFSGSGSGTDFTLTISSLQPEDIATYYCQGYDDLSVTFGGGTKVDIKR | 6.4 | 2.4 | no binding (tested: 5 µg/ml) | 19 | 1000 to 10000 | 
TPP-3821 (antibody, human IgG2, kappa, V domains shown, humanized from TPP-3187, human IgG2; also called 3187HU2-hIgG2Kappa) VH: QVTLRESGPALVKPTQTLTLTCTFSGFSLSTYGIGVGWIRQPPGKALEWLAHIWWNDNKYYSTSLKTRLTISKDTSKNQVVLTMTNMDPVDTATYYCARISLPYFDYWGQGTLVTVSS VL: DIQLTQSPSFLSASVGDRVTITCKASQNVGTAVAWYQQKPGKAPKLLIYSASNRYTGVPSRFSGSGSGTEFTLTISSLQPEDFATYYCQQYNNYPLTFGGGTKVEIKR | 4.5 | 4.7 | no binding (tested: 5 µg/ml) | 1 |  | no binding (tested: 200 nM)
TPP-3310 (antibody, human IgG2, kappa, humanized from TPP-2971, human IgG2; also called TPP-2971HU1-hIgG2Kappa) heavy: QVTLRESGPALVKPTQTLTLTCTFSGFSLSTYGIGVGWIRQPPGKALEWLAHIWWNDNKYYSTSLKTRLTISKDTSKNQVVLTMTNMDPVDTATYYCARISLPYFDYWGQGTTLTVSSASTKGPSVFPLAPCSRSTSESTAALGCLVKDYFPEPVTVSWNSGALTSGVHTFPAVLQSSGLYSLSSVVTVPSSNFGTQTYTCNVDHKPSNTKVDKTVERKCCVECPPCPAPPVAGPSVFLFPPKPKDTLMISRTPEVTCVVVDVSHEDPEVQFNWYVDGVEVHNAKTKPREEQFNSTFRVVSVLTVVHQDWLNGKEYKCKVSNKGLPAPIEKTISKTKGQPREPQVYTLPPSREEMTKNQVSLTCLVKGFYPSDIAVEWESNGQPENNYKTTPPMLDSDGSFFLYSKLTVDKSRWQQGNVFSCSVMHEALHNHYTQKSLSLSPG light: DIQLTQSPSFLSASVGDRVTITCKASQNVGTAVAWYQQKPGKAPKLLIYSASNRYTGVPSRFSGSGSGTEFTLTISSLQPEDFATYYCQQYSSYPLTFGGGTKVEIKRTVAAPSVFIFPPSDEQLKSGTASVVCLLNNFYPREAKVQWKVDNALQSGNSQESVTEQDSKDSTYSLSSTLTLSKADYEKHKVYACEVTHQGLSSPVTKSFNRGEC | 3.7 | 3.4 | no binding (tested: 5 µg/ml) | 0.6 |  | no binding (tested: 200 nM)
TPP-2971 (antibody, mouse IgG1, V domains shown, murine hybridoma antibody, mouse IgG1; also called 792.15H12C9) VH: QVTLKESGPGILQPSQTLSLTCSFSGFSLSTYGIGVGWIRQPSGKDLEWLAHIWWNDNKYYNTALKSRLTISKDTSNNQVFLKIASVDTADTATYYCARISLPYFDYWGQGTTLTVSS VL: DIVMTQSQKFMSTSVGDRVSITCKASQNVGTAVAWYQQKPGQSPKLLIYSASNRYTGVPDRFTGSGSGTDFTLTISNMQSEDLADYFCQQYSSYPLTFGAGTKLELK | 11 | 5.3 |  | 0.5 | 10 to 100 | no binding (tested: 200 nM)
TPP-3323 (antibody, human IgG2, kappa, V domains shown, human IgG2 chimera; also called TPP-3187X1-hIgG2; hIgG2 chimera of TPP-3187) VH: QVTLKESGPGILQPSQTLSLTCSFSGFSLTTYGIGVGWIRQPSGKGLEWLAHIWWNDNKYYNTALKSRLTISKDTSNNQVFLKIASVDTADTATYYCARISLPYFDYWGQGTTLTVSS VL: DIVMTQSQKFMSTSVGDRVSITCKASQNVGTAVAWYQQKPGQSPKLLIYSASNRYTGVPDRFTGSGSGTDFTLTISNMQSEDLADYFCQQYNNYPLTFGAGTKLELKR | 9 | 6.9 |  | 0.6 | 10 to 100 | 
TPP-3308 (antibody, human IgG2, kappa, V domains shown, human IgG2 chimera; also called TPP-2971X1-hIgG2Kappa; hIgG2 chimera of TPP-2971) VH: QVTLKESGPGILQPSQTLSLTCSFSGFSLSTYGIGVGWIRQPSGKDLEWLAHIWWNDNKYYNTALKSRLTISKDTSNNQVFLKIASVDTADTATYYCARISLPYFDYWGQGTTLTVSS VL: DIVMTQSQKFMSTSVGDRVSITCKASQNVGTAVAWYQQKPGQSPKLLIYSASNRYTGVPDRFTGSGSGTDFTLTISNMQSEDLADYFCQQYSSYPLTFGAGTKLELKR | 9.5 | 5.4 |  | 0.45 | 10 to 100 | 
TPP-3187 (antibody, mouse IgG1, V domains shown, murine hybridoma antibody, mouse IgG1; also called 792.15C4F4) VH: QVTLKESGPGILQPSQTLSLTCSFSGFSLTTYGIGVGWIRQPSGKGLEWLAHIWWNDNKYYNTALKSRLTISKDTSNNQVFLKIASVDTADTATYYCARISLPYFDYWGQGTTLTVSS VL: DIVMTQSQKFMSTSVGDRVSITCKASQNVGTAVAWYQQKPGQSPKLLIYSASNRYTGVPDRFTGSGSGTDFTLTISNMQSEDLADYFCQQYNNYPLTFGAGTKLELK | 12 | 6.9 |  | 0.35 | 100 to 1000 | 
